Reference: PMC3792862, “Structure of UreG/UreF/UreH Complex Reveals How Urease Accessory Proteins Facilitate Maturation of Helicobacter pylori Urease” (PLoS Biology, 2013)

B1: UreF/UreH complex (complex)
chain 1: MDKGKSVKSTEKSVGMPPKTPKTDNNAHVDNEFLILQVNDAVFPIGSYTHSFGLETYIQQKKVTNKESALEYLKANLSSQFLYTEMLSLKLTYESALQQDLKKILGVEEVIMLSTSPMELRLANQKLGNRFIKTLQAMNELDMGEFFNAYAQKTKDPTHATSYGVFAASLGIELKKALRHYLYAQTSNMVINCVKSVPLSQNDGQKILLSLQSPFNQLIEKTLELDESHLCTASVQNDIKAMQHESLYSRLYMS
chain 2: MNTYAQESKLRLKTKIGADGRCVIEDNFFTPPFKLMAPFYPKDDLAEIMLLAVSPGMMRGDAQDVQLNIGPNCKLRITSQSFEKIHNTEDGFASRDMHIVVGENAFLDFAPFPLIPFENAHFKGNTTISLRSSSQLLYSEIIVAGRVARNELFKFNRLHTKISILQDEKPIYYDNTILDPKTTDLNNMCMFDGYTHYLNLVLVNCPIELSGVRECIEESEGVDGAVSETASSHLCVKALAKGSEPLLHLREKIARLVTQTTTQKV
notes: UreF, urease accessory protein of Helicobacter pylori; UreH, urease accessory protein of Helicobacter pylori (ortholog of UreD); also called (UreF/UreH)2; wild-type UreF/UreH complex; copies: 2 + 2
B2: UreF (natural protein)
chain: MDKGKSVKSTEKSVGMPPKTPKTDNNAHVDNEFLILQVNDAVFPIGSYTHSFGLETYIQQKKVTNKESALEYLKANLSSQFLYTEMLSLKLTYESALQQDLKKILGVEEVIMLSTSPMELRLANQKLGNRFIKTLQAMNELDMGEFFNAYAQKTKDPTHATSYGVFAASLGIELKKALRHYLYAQTSNMVINCVKSVPLSQNDGQKILLSLQSPFNQLIEKTLELDESHLCTASVQNDIKAMQHESLYSRLYMS
notes: UreF, urease accessory protein of Helicobacter pylori; The UreF chain of m6, for the rows of two chains that touch; also called UreF protomer; UreF chain A
B3: UreG (natural protein)
chain: MVKIGVCGPVGSGKTALIEALTRHMSKDYDMAVITNDIYTKEDAEFMCKNSVMPRERIIGVETGGCPHTAIREDASMNLEAVEEMHGRFPNLELLLIESGGDNLSATFNPELADFTIFVIDVAEGDKIPRKGGPGITRSDLLVINKIDLAPYVGADLKVMERDSKKMRGEKPFIFTNIRAKEGLDDVIAWIKRNALLED
notes: UreG, urease accessory protein (SIMIBI class GTPase) of Helicobacter pylori; Monomer in solution unless nickel and GTP (or free zinc) are present; two copies in the crystal of the UreG/UreF/UreH complex; also called apo-UreG; wild-type UreG; source: E. coli, purified (HisTrap, tag cleaved with SENP1C, second HisTrap, Superdex 75; dialysed with 5 mM EDTA)

What was measured:
[1] = molecular target: the molecule itself; assay: SEC-MALS; SEC/SLS; 40 µM UreG/UreF/UreH complex pre-incubated with 0.5 mM nickel and 1 mM GTP (2 mM magnesium sulfate); Superdex 200, phosphate-buffered saline; peaks analysed by SDS-PAGE
[2] = molecular target: the molecule itself; assay: crystal structure; UreG/UreF/UreH complex with 5 mM GDP, 10 mM magnesium sulfate, 5 mM aluminum fluoride; 1.5 M ammonium sulfate, 100 mM sodium acetate pH 5.0, 16°C; GDP-bound state, 2.35 Å
[3] = molecular target: T1, UreH (Helicobacter pylori, UniProt Q09067 1-265); assay: as above; conditions: both partners purified
T1 construct: UreH, urease accessory protein of Helicobacter pylori; The UreH chain of m6 to m9; also called UreH (ortholog of UreD)
T1 sequence: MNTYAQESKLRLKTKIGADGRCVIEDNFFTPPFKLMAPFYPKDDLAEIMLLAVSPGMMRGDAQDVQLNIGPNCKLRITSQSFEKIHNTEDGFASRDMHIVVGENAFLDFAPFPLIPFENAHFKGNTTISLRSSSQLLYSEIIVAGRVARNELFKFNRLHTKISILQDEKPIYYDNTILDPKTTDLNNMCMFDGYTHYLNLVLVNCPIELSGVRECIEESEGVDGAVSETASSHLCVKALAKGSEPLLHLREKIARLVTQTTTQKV

[4] = molecular target: B2; assay: as above; conditions: both partners purified
[5] = molecular target: B1; assay: as above; conditions: both partners purified
[6] = molecular target: T2, HisGST-UreF/UreH complex (Helicobacter pylori, UniProt Q09065 1-254; Q09067 1-265); assay: pull-down; purified GST-UreF/UreH and excess UreG on GST SpinTrap, 30 min at 4°C; immobilised complex incubated with 1 mM GTP and 2 mM magnesium sulfate, washed with buffer C, eluted with glutathione; SDS-PAGE of wash and eluate; conditions: both partners purified
T2 construct: UreF, urease accessory protein of Helicobacter pylori; UreH, urease accessory protein of Helicobacter pylori; also called wild-type HisGST-UreF (with UreH)
T2 sequence 1: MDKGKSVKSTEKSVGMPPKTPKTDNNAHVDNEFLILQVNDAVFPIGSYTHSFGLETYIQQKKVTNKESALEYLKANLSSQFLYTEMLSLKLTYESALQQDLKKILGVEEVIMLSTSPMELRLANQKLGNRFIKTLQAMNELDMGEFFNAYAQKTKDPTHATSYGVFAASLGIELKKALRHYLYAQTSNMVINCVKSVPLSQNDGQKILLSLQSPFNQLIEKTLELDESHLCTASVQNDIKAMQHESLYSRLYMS
T2 sequence 2: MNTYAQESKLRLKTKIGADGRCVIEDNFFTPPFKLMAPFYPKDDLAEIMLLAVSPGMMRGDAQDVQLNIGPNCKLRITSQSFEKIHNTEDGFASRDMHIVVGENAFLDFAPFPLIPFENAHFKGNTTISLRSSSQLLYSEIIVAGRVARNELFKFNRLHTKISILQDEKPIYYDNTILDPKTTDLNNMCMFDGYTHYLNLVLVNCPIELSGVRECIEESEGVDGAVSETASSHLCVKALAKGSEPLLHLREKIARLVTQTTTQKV

| Binder | stoichiometry N [1] | binding result [2] | binding result [3] | binding result [4] | binding result [5] | binding result [6] |
| --- | --- | --- | --- | --- | --- | --- |
| B1 | 2 |  |  |  |  |  |
| B2 |  | binds | binds |  |  |  |
| B3 | 2 |  |  | binds | binds | binds |
